# In IntAct's records for PubMed 16513117:
# B1: Protein phosphatase Slingshot homolog 1 (Homo sapiens), Q8WYL5 (parent)
# chain: MALVTLQRSPTPSAASSSASNSELEAGSEEDRKLNLSLSESFFMVKGAALFLQQGSSPQGQRSLQHPHKHAGDLPQHLQVMINLLRCEDRIKLAVRLESAWADRVRYMVVVYSSGRQDTEENILLGVDFSSKESKSCTIGMVLRLWSDTKIHLDGDGGFSVSTAGRMHIFKPVSVQAMWSALQVLHKACEVARRHNYFPGGVALIWATYYESCISSEQSCINEWNAMQDLESTRPDSPALFVDKPTEGERTERLIKAKLRSIMMSQDLENVTSKEIRNELEKQMNCNLKELKEFIDNEMLLILGQMDKPSLIFDHLYLGSEWNASNLEELQGSGVDYILNVTREIDNFFPGLFAYHNIRVYDEETTDLLAHWNEAYHFINKAKRNHSKCLVHCKMGVSRSASTVIAYAMKEFGWPLEKAYNYVKQKRSITRPNAGFMRQLSEYEGILDASKQRHNKLWRQQTDSSLQQPVDDPAGPGDFLPETPDGTPESQLPFLDDAAQPGLGPPLPCCFRRLSDPLLPSPEDETGSLVHLEDPEREALLEEAAPPAEVHRPARQPQQGSGLCEKDVKKKLEFGSPKGRSGSLLQVEETEREEGLGAGRWGQLPTQLDQNLLNSENLNNNSKRSCPNGMEDDAIFGILNKVKPSYKSCADCMYPTASGAPEASRERCEDPNAPAICTQPAFLPHITSSPVAHLASRSRVPEKPASGPTEPPPFLPPAGSRRADTSGPGAGAALEPPASLLEPSRETPKVLPKSLLLKNSHCDKNPPSTEVVIKEESSPKKDMKPAKDLRLLFSNESEKPTTNSYLMQHQESIIQLQKAGLVRKHTKELERLKSVPADPAPPSRDGPASRLEASIPEESQDPAALHELGPLVMPSQAGSDEKSEAAPASLEGGSLKSPPPFFYRLDHTSSFSKDFLKTICYTPTSSSMSSNLTRSSSSDSIHSVRGKPGLVKQRTQEIETRLRLAGLTVSSPLKRSHSLAKLGSLTFSTEDLSSEADPSTVADSQDTTLSESSFLHEPQGTPRDPAATSKPSGKPAPENLKSPSWMSKS
# Variants of: B1
# Conditions: with actb_rabit ACTB
row,effect of a mutation on the interaction,Variant
1,disrupting interaction,W458A
